Experimental data reported in patent US20260102487A1 (Amgen, published 2026).

T1: human IL-2Rγ (recombinant protein and on cells) (human, UniProt P31785 23-262, limits assumed)
T1 construct: recombinant protein and of cells together; also called IL2RG; CD132
T1 sequence: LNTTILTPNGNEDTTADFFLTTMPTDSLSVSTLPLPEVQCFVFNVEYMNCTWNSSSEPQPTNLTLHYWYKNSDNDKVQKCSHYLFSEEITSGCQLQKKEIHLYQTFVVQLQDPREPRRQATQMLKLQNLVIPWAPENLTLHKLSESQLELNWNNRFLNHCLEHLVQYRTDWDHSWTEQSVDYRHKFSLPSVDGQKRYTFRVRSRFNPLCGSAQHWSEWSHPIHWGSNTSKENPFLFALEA

T2: IL2RB, Human
T2 construct: Same protein as m17, but here as recombinant protein in solution, not on CHO cells; also called human IL-2RB (AcroBiosystems); IL-2Rβ
T2 receptor chain: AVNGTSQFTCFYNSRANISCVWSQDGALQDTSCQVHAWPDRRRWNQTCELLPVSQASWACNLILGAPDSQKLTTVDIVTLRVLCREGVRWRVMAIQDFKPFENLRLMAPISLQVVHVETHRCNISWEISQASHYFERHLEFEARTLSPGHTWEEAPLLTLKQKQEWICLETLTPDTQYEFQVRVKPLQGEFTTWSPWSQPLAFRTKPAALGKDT

T3: cynomolgus IL-2Rγ (recombinant protein and on cells) (cynomolgus, UniProt A0A2K5VGJ6 23-254)
T3 construct: also called cynomolgus IL-2RG
T3 sequence: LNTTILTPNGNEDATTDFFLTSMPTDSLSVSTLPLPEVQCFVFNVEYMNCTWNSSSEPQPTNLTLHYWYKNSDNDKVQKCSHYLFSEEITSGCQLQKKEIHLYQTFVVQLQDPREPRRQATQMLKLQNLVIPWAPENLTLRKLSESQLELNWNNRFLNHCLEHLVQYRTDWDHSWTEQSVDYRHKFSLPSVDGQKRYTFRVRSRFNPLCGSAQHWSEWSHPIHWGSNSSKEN

T4: IL2RB, Cyno (Macaca fascicularis, UniProt Q38J85)
T4 construct: Same protein as m18, but here as recombinant protein in solution, not on CHO cells; also called cynomolgus IL-2RB (Sino Biological)
T4 sequence (receptor chain, looked up): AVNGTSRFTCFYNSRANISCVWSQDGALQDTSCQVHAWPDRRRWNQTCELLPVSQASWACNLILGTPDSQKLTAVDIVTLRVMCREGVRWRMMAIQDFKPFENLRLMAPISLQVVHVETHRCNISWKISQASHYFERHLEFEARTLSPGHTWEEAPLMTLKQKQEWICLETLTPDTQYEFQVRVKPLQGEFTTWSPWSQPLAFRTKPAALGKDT

B1: BsAb-2 (IL2RB_F09G**IL2RG_F16B) (bispecific antibody, human IgG4, V domains shown)
V domain 1: QVQLQESGPGLVKSSETLSLTCTVSGGSISSSDWWSWVRQPPGKGLEWIGEIDHSGSTNYNPSLMSRVTISVDKSKNQFSLKLSSVTAADTAVYFCARGSWELTDAFDIRGQGTLVTVSS
V domain 2: QVQLVESGGGLVKPGGSLRLSCAASGFTFSDYYMSWIRQAPGKGLEWVSYISSSGSTIYYADSVKGRFTISRDNAKNSLYLQMNSLRAEDTAVYYCARGDAVSITGDYRGQGTLVTVSS
notes: Heavy chain-only bispecific on silenced, stabilised human IgG4 Fc, knobs-into-holes, no light chains; not shown: C-terminal His-tag on the knob chain
B2: BsAb-1 (IL2RB_F09C**IL2RG_F16A) (bispecific antibody, human IgG4, V domains shown)
V domain 1: QVQLQESGPGLVKPSGTLSLTCAVSGGSISSSDWWSWVRQPPGKGLEWIGEIDHSGSTNYNPSLMSRVTISVDKSKNQFSLKLSSVTAADTAVYFCGRGSWELSDAFDIRGQGTLVTVSS
V domain 2: QVQLVESGGGLVKPGGSLRLSCAASGFTFSDYYMSWIRQAPGKGLEWVSSISSSGDTIYYADSVQGRFTLSRDNAENSLFLQMNSLRAEDTAVYYCARGDAVSITGDYRGQGTLVTVSS
notes: as for B1
B3: BsAb-3 (IL2RB_F09G**IL2RG_F16C) (bispecific antibody, human IgG4, V domains shown)
V domain 1: QVQLQESGPGLVKSSETLSLTCTVSGGSISSSDWWSWVRQPPGKGLEWIGEIDHSGSTNYNPSLMSRVTISVDKSKNQFSLKLSSVTAADTAVYFCARGSWELTDAFDIRGQGTLVTVSS
V domain 2: QVQLVESGGGLVKPGGSLRLSCAASGFTFNDYYMSWIRQAPGKGLEWVSHISSSGSTIYYADSVKGRFTVSRDNANNSLYLQMHSLRAEDTAVYYCARGDAVSITGDYRGQGTLVTVSS
notes: as for B1
B4: BsAb-5 (IL2RB_F09K**IL2RG_F16B) (bispecific antibody, human IgG4, V domains shown)
V domain 1: QVQLQESSPGLVKPSETLSLTCTVSGGSISSSNWWSWVRQPPGKGLEWIGEISHSGSTNYNPSLKSRVTISVDKSKNQFSLRLSSVTAADTAVYFCGRGSWELTDAFDIRGQGTLVTVSS
V domain 2: QVQLVESGGGLVKPGGSLRLSCAASGFTFSDYYMSWIRQAPGKGLEWVSYISSSGSTIYYADSVKGRFTISRDNAKNSLYLQMNSLRAEDTAVYYCARGDAVSITGDYRGQGTLVTVSS
notes: as for B1
B5: BsAb-4 (IL2RB_F09G**IL2RG_F18A) (bispecific antibody, human IgG4, V domains shown)
V domain 1: QVQLQESGPGLVKSSETLSLTCTVSGGSISSSDWWSWVRQPPGKGLEWIGEIDHSGSTNYNPSLMSRVTISVDKSKNQFSLKLSSVTAADTAVYFCARGSWELTDAFDIRGQGTLVTVSS
V domain 2: QVQLVESGGDLVKPGGSLRLSCAASGFTFSDYYMSWLRQAPGKELEWVSHISSSGTTTYYADSVEGRFTITRDNAKNSLYLQMNSLRAEDTAVYYCARGAAVAPGFDSRGQGTLVTVSS
notes: as for B1
B6: BsAb-6 (IL2RB_F18E**IL2RG_F16A) (bispecific antibody, human IgG4, V domains shown)
V domain 1: QVQLVESGGGVVQPGRSLRLSCAASGFTFSSYGMHWVRQAPGKEREWVAVISYDGSNKYYTDSVKGRFTISRDNSKNTLYLEMNSLRAEDTAVYYCARDLDYDVLTGDPVGGFDIWGQGTLVTVSS
V domain 2: QVQLVESGGGLVKPGGSLRLSCAASGFTFSDYYMSWIRQAPGKGLEWVSSISSSGDTIYYADSVQGRFTLSRDNAENSLFLQMNSLRAEDTAVYYCARGDAVSITGDYRGQGTLVTVSS
notes: as for B1

What was measured:
[1] = biological target: T5, cynomolgus IL-2Rβγ receptor on cynomolgus T-cells (PBMCs) (cynomolgus); test: flow cytometry cell binding on cynomolgus CD8+ T-cells (PBMC), gMFI as fold over secondary antibody only
T5 construct: whole, on cells; Endogenous receptor on primary cynomolgus cells
Method: All washes and dilutions of cells, antibodies, and reagents were performed using flow buffer (1X PBS, 1% BSA, 0.1% NaN3, pH 7.4). Staining was performed in a round-bottom 96-well plate (Corning) seeded at 100,000 cells/well, and all incubations were performed at 4° C. or on ice. […] The cells were washed twice with 200 μL flow buffer. The cells were then incubated for 30 minutes with detection antibody (Goat F(ab′)2 Anti-Human IgG-PE, Southern Biotech) at 0.625 μg/mL in flow buffer. Following 2 more washes, the cells were resuspended in a final volume of 150 μL of flow buffer. The cells were analyzed on a BD FACSCelesta or a Guava easyCyte 8-HT flow cytometer. At least 3000 events were collected, and PE geometric mean fluorescence intensity was plotted as a fold over background (cells incubated with secondary detection antibody only). In some secondary screens involving human or cynomolgus PBMCs, an additional CD4 antibody (BioLegend) and/or CD8 antibody (BioLegend) was included to further characterize cell binding.

[2] = biological target: T1, human IL-2Rγ (recombinant protein and …); test: biolayer interferometry (Octet Qk384), antibody captured on anti-human Fc (AHC) sensors, antigen 7.8-500 nM in solution, 1:1 fit, KD = kd/ka
Method: (§1) All kinetics measurement experiments were performed on a ForteBio Octet Qk384 instrument using anti-human Fc capture (AHC, 18-5005) sensors. The bispecific heavy chain-only antibodies and antigens were diluted to final concentrations in Kinetics buffer (0.02% Tween20, 0.1% BSA, 0.05% sodium azide, 1X PBS). Kinetics measurements were against the following antigens: human IL-2RB (AcroBiosystems), human TL-2RG (AcroBiosystems), cynomolgus IL-2RB (Sino Biological), cynomolgus IL-2RG (expressed and purified in house using ExpiCHO expression system followed by Ni-NTA his-tag purification). The antibodies were loaded on the AHC sensors at 5 μg/mL for maximum loading. Following a short baseline in Kinetics buffer, the sensors were exposed to a series of analyte concentrations (7.8 nM to 500 nM) for association step and background subtraction was used to correct for sensor drifting. Dissociation was monitored in Kinetics buffer. The capture surfaces were regenerated for 60s. All experiments were performed with shaking at 1000 rpm. ForteBio's data analysis software was used to fit the data to a 1:1 binding model to extract an association rate and dissociation rate. The KD was calculated using the ratio kd/ka.

[3] = biological target: T2, IL2RB, Human; test: as above
Method: as §1

[4] = biological target: T3, cynomolgus IL-2Rγ (recombinant protein …); test: as above
Method: as §1

[5] = biological target: T4, IL2RB, Cyno; test: as above
Method: as §1

Binder	EC50 (read off the curve) [1]	Kd [2]	Kd [3]	Kd [4]	Kd [5]
B1	~2 nM	17.1 nM	93.4 nM	50.2 nM	16.7 nM
B2	~20 nM	1.79 nM	18.5 nM	4.87 nM	10.7 nM
B3	~10 nM	1.43 nM	96.7 nM	3.58 nM	16 nM
B4	~4 nM	20.1 nM	182 nM	41.5 nM	16.5 nM
B5	~10 nM	2.93 nM	82.4 nM	5.81 nM	17.3 nM
B6	~20 nM	1.88 nM	53.8 nM	5.42 nM	55.2 nM
